Data published in patent US10391180B2, “Self-assembling complex for targeting chemical agents to cells” (CEDARS-SINAI MEDICAL CENTER, priority 2007, dated 2019).

Legend:
Assay type in all cases: cell-based
[1] = system: MDA-MB-435 (HER2+) cells; experiment: Targeted toxicity, MTT assay, separate dishes; settings: 0.5 uM Dox conc, 4 h exposure, by three days
Procedure: (§1) FIG. 7 illustrates targeted toxicity. Each cell line was exposed to HerDox (0.5 uM Dox cone), Dox alone (0.5 uM), or HerPBK10 alone for 4 h at 37° C. in complete (i.e. serum-containing) media, followed by aspiration to remove free conjugate, and addition of fresh medium while cells are grown continuously. Cell titer was determined by metabolic (i.e. MTT) assay. FIG. 7 upper panel illustrates the effect of HerDox on MDA-MB-231 (HER2−) and MDA-MB-435 (HER2+) cell survival. Relative surviving cell numbers are represented as a % of corresponding untreated cells. FIG. 7 lower panel illustrates comparison of HerDox, Dox alone, or HerPBK10 alone on HER2− and HER2+ cell survival. Relative survival (as % of untreated cells) is shown for Day 3 of treatment.
(§2) The inventors compared the effect of HerDox or Dox alone at equivalent dosages (0.5 uM with respect to Dox concentration) on HER2+ and HER2− breast cancer cells in separate dishes. By three days, HerDox reduced HER2+ cell numbers by over 75% whereas HER2− cell survival was unaffected (FIG. 7). […] These findings emphasize the importance of targeting by showing that the untargeted drug affects nontarget (i.e. HER2−) cells. Importantly, the protein carrier, HerPBK10, alone at the equivalent concentration of protein in HerDox (0.1 uM) had no effect on either cell line (FIG. 7), including a lack of proliferation induction. To test receptor targeting, the inventors used free heregulin ligand (Her or eHRG) as a competitive inhibitor. […] As a final in vitro challenge, the inventors tested whether HerDox induces toxicity specifically to HER2+ cells in a mixed culture of HER2+ and HER2− breast cancer cells. To do this, the inventors produced a HER2− cell line tagged with green fluorescent protein (GFP) for cell identification in the mixed culture (FIG. 9 (A)). […] Altogether, these findings indicate that HerDox has the capacity to preferentially target toxicity to HER2+ cells. […] Moreover, the preferential cell killing of HER2+ cells in a mixed culture of HER2+ and HER2− cells implies that after death and lysis of the target cells, the Dox released into those cells is incapable of continuing to induce toxicity to HER2− cells. To further confirm the stability of HerDox in cell culture, HerDox was recovered from culture media in separate experiments at indicated time points and electrophoresed on an agarose gel, which was then illuminated by UV to detect Dox and stained with Coomassie blue to detect HerPBK10 protein (FIG. 9 (C)). […] Co-migration of HerPBK10 bands further verified that the conjugates remained intact in the cell media.

[2] = system: MDA-MB-231 (HER2−) cells; experiment: Targeted toxicity, MTT assay, separate dishes; settings: HerDox/Dox 0.5 uM Dox; HerPBK10 0.1 uM; day 3
Procedure: as §1, §2

[3] = system: GFP(+) MDA-MB-231 (HER2−) cells; experiment: Targeting in a mixed cell culture; settings: HerDox containing 0.5 uM Dox, day 2
Procedure: (§3) FIGS. 9 (A)-(C) illustrates targeting in a mixed cell culture. As illustrated in FIG. 10 (A), equal numbers of MDA-MB-435 and GFP(+) MDA-MB-231 cells were treated with Dox alone (0.5 uM), Her-Dox (containing 0.5 uM Dox), or HerPBK10 (1.2 ug/well, equivalent to HerPBK10 in HerDox). Wells were assayed for GFP fluorescence (to determine relative MDA-MB-231 number) and crystal violet staining (to determine total cell number). As illustrated in FIG. 9 (B), cell survival was determined by calculating the relative doubling time (DT) of experimental (exp) cells normalized by control (con) cells based on the crystal violet stains (total cells) and GFP fluorescence (MDA-MB-231 cells). The DT of MDA-MB-435 was determined by subtracting the DT of MDA-MB-231 from the total cell DT. Relative survival is shown for Day 2 of treatment. As illustrated in FIG. 9 (C), there is stability in cell culture. Aliquots of culture media containing HerDox (after incubation for the indicated times at 37° C.) were electrophoresed on a 2% agarose gel. HerDox incubated at 37° C. in HEPES-buffered saline, lacking serum, was processed in parallel. Dox fluorescence was visualized by UV excitation. Free Dox (Dox alone) is not retained in the gel whereas Dox incorporated in HerDox is. […]

[4] = system: MDA-MB-435 (non-GFP, HER2+) cells; experiment: Targeting in a mixed cell culture; settings: HerDox containing 0.5 uM Dox, day 2
Procedure: as §3

[5] = system: MDA-MB-435 cells; experiment: Intracellular translocation in live cells, Dox fluorescence microscopy; settings: for intracellular location of Dox fluorescence: 0.5 uM
Procedure: FIGS. 14 (A)-(B) illustrates comparison of HerDox and Dox intracellular translocation and targets in live cells. MDA-MB-435 cells were incubated with HerDox or free Dox (0.5 uM) at 37° C. Live (unfixed) cells were imaged by brightfield and fluorescence as depicted in […], or DIC and confocal fluorescence, as depicted in FIG. 14 (B), microscopy. Dox is indicated by red or magenta pseudocolor.
To understand the mechanism of HerDox mediated tumor cell death, the inventors examined HER2+ cells microscopically after treatment with HerDox, using Dox fluorescence to detect intracellular location. […] These dynamics, in addition to earlier targeting results, support a receptor-mediated HerDox entry mechanism. Even the intranuclear pattern of Dox when delivered by HerPBK10 differs from free Dox.

B1: HerDox: non-covalent complex of HerPBK10, a small double-stranded nucleic acid and intercalated Dox (conjugate)
chain: LPPRLKEMKSQESAAGSKLVLRCETSSEYSSLRFKWFKNGNELNRKNKPQNIKIQKKPGKSELRINKASLADSGEYMCKVISKLGNDSASANITIVESNEIITGMPASTEGAYVSSESPIRISVSTEGANTSSSTSTSTTGTSHLVKCAEKEKTFCVNGGECFMVKDLSNPSRYLCKCQPGFTGARCTENVPMKVQNQEKAEELYMRRAAMYEEGPPPSYESVVSAAPVAAALGSPFDAPLDPPFVPPRYLRPTGGRNSIRYSELAPLFDTTRVYLVDNKSTDVASLNYQNDHSNFLTTVIQNNDYSPGEASTQTINLDDRSHWGGDLKTILHTNMPNVNEFMFTNKFKARVMVSRLPTKDNQVELKYEWVEFTLPEGNYSETMTIDLMNNAIVEHYLKVGRQNGVLESDIGVKFDTRNFRLGFDPVTGLVMPGVYTNEAFHPDIILLPGCGVDFTHSRLSNLLGIRKRQPFQEGFRITYDDLEGGNIPALLDVDAYQASLKDDTEQGGGGAGGSNSSGSGAEENSNAAAAAMQPVEDMNDHAIRGDTFATRAEEKRAEAEAAAEAAAPAAQPEVEKPQKKPVIKPLTEDSKKRSYNLISNDSTFTQYRSWYLAYNYGDPQTGIRSWTLLCTPDVTCGSEQVYWSLPDMMQDPVTFRSTRQISNFPVVGAELLPVHSKSFYNDQAVYSQLIRQFTSLTHVFNRFPENQILARPPAPTITTVSENVPALTDHGTLPLRNSIGGVQRVTITDARRRTCPYVYKALGIVSPRVLSSRTFKKKKKKKKKK
modifications: left off: small tags and cut ends
notes: non-covalent complex of HerPBK10, a small double-stranded nucleic acid and intercalated Dox
- reduction of HER2+ cell numbers [1]: over 75%
- effect on HER2− cell survival [2]: unaffected
- GFP (HER2−) cell growth in mixed culture [3]: not altered
- non-GFP (HER2+) cell proliferation in mixed culture [4]: nearly completely reduced
- intracellular location of Dox fluorescence ([5]; 0 min of uptake): mostly at the cell periphery
- intracellular location of Dox fluorescence ([5]; 60 min): accumulated in the nucleus
- intranuclear pattern of Dox ([5]; live cells, confocal): preferentially accumulates in nucleolar structures
